Data reported in publication PMC3118421.

Target: human dimeric IgA2 anti-NIP, wild type (not stated | human | mouse)
Assay: rosetting assay

B1: streptococcal IgA-binding M protein Arp4 (M4) (natural protein)
chain: AEIKKPQADSAWNWPKEYNALLKENEELKVEREKYLSYADDKEKDPQYRALMGENQDLRKREGQYQDKIEELEKERKEKQERQEQLERQYQIEADKHYQEQQKKHQQEQQQLEAEKQKLAKDKQISDASRQGLSRDLEASRAAKKELEAEHQKLKEEKQISDASRQGLSRDLEASREAKKKVEADLAALTAEHQKLKEDKQISDASRQGLSRDLEASREAKKKVEADLAEANSKLQALEKLNKELEEGKKLSEKEKAELQARLEAEAKALKEQLAKQAEELAKLKGNQTPNAKVAPQANRSRSAMTQQKRTLPST
Question: For B1, which percent inhibition of dIgA binding to hFcα/μR (rosettes, Arp4 at 100 μg/mL) is on record?
Answer: Its percent inhibition of dIgA binding to hFcα/μR (rosettes, Arp4 at 100 μg/mL) is 50%.
